From US20250019454A1

Assays:
[1] = biological target: ΔCRD3-TNFR2 protein (with CRD3 deletion), on CHO-S cells (human) (UniProt P20333); experiment: FACS on CHO-S cells with ΔCRD3-TNFR2, secondary antibody alone (background control)
[2] = biological target: ΔCRD1-TNFR2 protein (with CRD1 deletion), on CHO-S cells (human) (UniProt P20333); experiment: FACS on CHO-S cells with ΔCRD1-TNFR2, secondary antibody alone (background control)
[3] = biological target: ΔCRD4-TNFR2 protein (with CRD4 deletion), on CHO-S cells (human) (UniProt P20333); experiment: FACS on CHO-S cells with ΔCRD4-TNFR2, secondary antibody alone (background control)
Sequence of ΔCRD4-TNFR2 protein (with CRD4 deletion), on CHO-S cells (human) (P20333 other isoform, or with tags, fused parts or gaps mutant): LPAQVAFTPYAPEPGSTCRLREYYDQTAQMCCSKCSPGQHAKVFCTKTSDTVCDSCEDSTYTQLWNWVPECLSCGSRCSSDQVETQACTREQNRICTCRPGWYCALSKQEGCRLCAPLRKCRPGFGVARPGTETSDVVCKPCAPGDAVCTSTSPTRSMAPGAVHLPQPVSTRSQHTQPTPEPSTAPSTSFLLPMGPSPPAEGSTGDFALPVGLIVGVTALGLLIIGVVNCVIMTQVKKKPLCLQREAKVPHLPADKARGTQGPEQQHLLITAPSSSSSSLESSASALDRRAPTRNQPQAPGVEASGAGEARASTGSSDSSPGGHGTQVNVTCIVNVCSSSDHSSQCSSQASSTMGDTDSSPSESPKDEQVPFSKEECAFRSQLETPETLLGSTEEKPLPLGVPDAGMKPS

[4] = biological target: ΔCRD2-TNFR2 protein (with CRD2 deletion), on CHO-S cells (human) (UniProt P20333); experiment: FACS on CHO-S cells with ΔCRD2-TNFR2, secondary antibody alone (background control)
Sequence of ΔCRD2-TNFR2 protein (with CRD2 deletion), on CHO-S cells (human) (P20333 other isoform, or with tags, fused parts or gaps mutant): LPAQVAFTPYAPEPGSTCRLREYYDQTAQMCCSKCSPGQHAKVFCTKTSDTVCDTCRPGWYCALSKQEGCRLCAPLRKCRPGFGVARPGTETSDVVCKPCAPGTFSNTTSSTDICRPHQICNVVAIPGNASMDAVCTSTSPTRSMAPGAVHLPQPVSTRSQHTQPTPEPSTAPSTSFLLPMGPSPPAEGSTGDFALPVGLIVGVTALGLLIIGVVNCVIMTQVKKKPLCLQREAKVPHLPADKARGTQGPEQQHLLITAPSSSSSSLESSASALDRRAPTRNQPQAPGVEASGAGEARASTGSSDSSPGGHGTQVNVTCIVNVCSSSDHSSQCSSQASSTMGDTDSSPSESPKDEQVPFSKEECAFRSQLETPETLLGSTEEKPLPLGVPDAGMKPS

Sequence of ΔCRD3-TNFR2 protein (with CRD3 deletion), on CHO-S cells (human) (P20333 other isoform, or with tags, fused parts or gaps mutant): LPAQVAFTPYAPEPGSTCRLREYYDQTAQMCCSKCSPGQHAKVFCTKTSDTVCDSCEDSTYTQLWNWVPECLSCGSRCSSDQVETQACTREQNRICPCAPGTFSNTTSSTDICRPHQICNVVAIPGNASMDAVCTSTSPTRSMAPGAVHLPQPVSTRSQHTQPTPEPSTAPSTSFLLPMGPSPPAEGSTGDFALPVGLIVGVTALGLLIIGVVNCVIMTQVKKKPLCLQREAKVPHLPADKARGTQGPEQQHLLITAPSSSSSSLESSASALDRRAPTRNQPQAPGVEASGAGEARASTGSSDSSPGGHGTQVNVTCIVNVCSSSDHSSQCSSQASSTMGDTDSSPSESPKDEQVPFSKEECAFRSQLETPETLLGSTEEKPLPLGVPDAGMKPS
Sequence of ΔCRD1-TNFR2 protein (with CRD1 deletion), on CHO-S cells (human) (P20333 other isoform, or with tags, fused parts or gaps mutant): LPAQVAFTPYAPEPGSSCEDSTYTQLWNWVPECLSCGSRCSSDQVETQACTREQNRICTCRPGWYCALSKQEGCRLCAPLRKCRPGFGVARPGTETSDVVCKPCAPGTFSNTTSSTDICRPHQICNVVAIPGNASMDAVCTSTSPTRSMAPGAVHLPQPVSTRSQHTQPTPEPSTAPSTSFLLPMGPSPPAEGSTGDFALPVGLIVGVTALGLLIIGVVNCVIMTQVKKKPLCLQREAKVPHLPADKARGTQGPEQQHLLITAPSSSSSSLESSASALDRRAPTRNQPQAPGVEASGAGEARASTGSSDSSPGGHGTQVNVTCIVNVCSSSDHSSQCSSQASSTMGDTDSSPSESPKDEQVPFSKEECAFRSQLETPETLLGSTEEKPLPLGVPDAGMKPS

“Secondary antibody (Alexa Fluor 647 AffiniPure F(ab')2 Fragment Goat Anti-Human IgG, Fcγ fragment specific, Jackson ImmunoResearch)” showed a positive rate of binding (% of cells) [1] of 0.62%, a positive rate of binding (% of cells) [2] of 10.2% and a positive rate of binding (% of cells) [3] of 1.02%. For the same substance, the positive rate of binding (% of cells) [4] was 7.33%.
